Test results: patent US20090270325A1

How the values were obtained:
[1] = biological target: human GHR on human 293 cells stably expressing the human GHR (human) (UniProt P10912)
[2] = biological target: human GHR on human 293 cells stably expressing the human GHR (human) (UniProt P10912); remark: listed apart in the source

- concentration for the maximal response, Stat 5 luciferase-reporter assay [1]: 50 to 250 nM
- GH-specific luciferase reporter assay (bioactivity) [2]: 10%
Substance: hGH-GHR Chimera (75 kDa chimera) (from UniProt P01241)
